The experiment concerns the target T1, Thrombospondin (TSP-1) (UniProt P07996 19-1170, biotinylated in the ligand blot of Example 5).
T1 construct: also called thrombospondin-1; biotinylated TSP-1
Briefly: resonant mirror biosensor, peptide alone on immobilized TSP-1.

T1 sequence (P07996 19-1170 limits assumed): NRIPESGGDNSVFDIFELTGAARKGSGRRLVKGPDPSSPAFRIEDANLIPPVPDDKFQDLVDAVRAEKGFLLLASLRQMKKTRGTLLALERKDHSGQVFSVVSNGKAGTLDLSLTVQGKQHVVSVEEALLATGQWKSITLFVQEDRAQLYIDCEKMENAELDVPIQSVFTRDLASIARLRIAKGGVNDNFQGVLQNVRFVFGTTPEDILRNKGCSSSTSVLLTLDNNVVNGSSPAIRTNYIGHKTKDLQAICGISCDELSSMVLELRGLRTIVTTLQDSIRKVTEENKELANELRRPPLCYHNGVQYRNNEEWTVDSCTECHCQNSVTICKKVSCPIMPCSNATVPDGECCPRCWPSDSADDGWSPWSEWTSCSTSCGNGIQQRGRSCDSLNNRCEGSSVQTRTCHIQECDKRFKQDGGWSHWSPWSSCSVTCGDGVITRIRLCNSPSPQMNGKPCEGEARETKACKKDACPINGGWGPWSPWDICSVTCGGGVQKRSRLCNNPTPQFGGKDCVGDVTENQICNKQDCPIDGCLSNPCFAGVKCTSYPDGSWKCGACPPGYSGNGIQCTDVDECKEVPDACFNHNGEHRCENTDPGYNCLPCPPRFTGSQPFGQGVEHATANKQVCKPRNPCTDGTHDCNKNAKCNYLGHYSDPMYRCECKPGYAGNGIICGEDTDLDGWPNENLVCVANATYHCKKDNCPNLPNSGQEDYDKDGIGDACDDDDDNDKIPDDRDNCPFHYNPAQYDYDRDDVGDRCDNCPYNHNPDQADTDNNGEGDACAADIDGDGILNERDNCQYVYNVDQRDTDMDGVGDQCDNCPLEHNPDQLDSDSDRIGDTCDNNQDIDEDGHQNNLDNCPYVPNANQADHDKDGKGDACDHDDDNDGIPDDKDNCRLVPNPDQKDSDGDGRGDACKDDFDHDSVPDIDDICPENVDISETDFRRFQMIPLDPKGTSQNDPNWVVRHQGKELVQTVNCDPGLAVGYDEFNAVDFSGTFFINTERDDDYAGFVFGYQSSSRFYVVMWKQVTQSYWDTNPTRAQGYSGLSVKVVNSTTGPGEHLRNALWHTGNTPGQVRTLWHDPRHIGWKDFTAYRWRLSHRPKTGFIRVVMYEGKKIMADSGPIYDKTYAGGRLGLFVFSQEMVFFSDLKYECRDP

B1: Pro-His-Ser-Arg-Asn (SEQ ID NO: 10) (peptide)
peptide: PHSRN
notes: also called random negative control peptide; control peptide
In the case of B1, the binding result is “no binding”.

The record behind these values is patent publication US20030180295A1 (PHILADELPHIA HEALTH AND EDUCATION, published 2003).
